Measurements: article PMC9482650, “Quantitative fragmentomics allow affinity mapping of interactomes” (Nature Communications, 2022)

T1: DFNB31_1, Q9P202
T1 sequence (Q9P202 135-233, limits assumed, looked up): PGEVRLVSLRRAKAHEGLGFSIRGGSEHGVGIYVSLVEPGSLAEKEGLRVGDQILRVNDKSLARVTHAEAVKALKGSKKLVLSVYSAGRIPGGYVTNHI

T2: PDZRN3_1, Q9UPQ7
T2 sequence (Q9UPQ7 244-349, limits assumed, looked up): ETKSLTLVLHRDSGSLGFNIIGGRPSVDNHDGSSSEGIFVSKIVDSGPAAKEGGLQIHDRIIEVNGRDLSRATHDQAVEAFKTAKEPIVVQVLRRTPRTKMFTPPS

T3: MPP2, Q14168
T3 sequence (Q14168 180-250, limits assumed, looked up): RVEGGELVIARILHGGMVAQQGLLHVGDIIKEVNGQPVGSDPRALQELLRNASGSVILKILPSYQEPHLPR

T4: TIAM2, Q8IVF5
T4 sequence (Q8IVF5 885-986, limits assumed, looked up): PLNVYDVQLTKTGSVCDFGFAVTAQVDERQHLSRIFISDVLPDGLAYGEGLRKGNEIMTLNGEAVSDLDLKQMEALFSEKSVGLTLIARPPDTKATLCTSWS

T5: PDZD2_2, O15018
T5 sequence (O15018 329-429, limits assumed, looked up): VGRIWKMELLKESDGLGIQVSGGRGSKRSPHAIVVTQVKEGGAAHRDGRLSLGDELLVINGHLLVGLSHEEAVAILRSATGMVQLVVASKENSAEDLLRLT

T6: DFNB31_2, Q9P202
T6 sequence (Q9P202 274-371, limits assumed, looked up): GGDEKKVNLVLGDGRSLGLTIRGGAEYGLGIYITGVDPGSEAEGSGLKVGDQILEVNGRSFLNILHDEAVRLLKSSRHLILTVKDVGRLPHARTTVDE

T7: GRIP1_2, Q9Y3R0
T7 sequence (Q9Y3R0 145-248, limits assumed, looked up): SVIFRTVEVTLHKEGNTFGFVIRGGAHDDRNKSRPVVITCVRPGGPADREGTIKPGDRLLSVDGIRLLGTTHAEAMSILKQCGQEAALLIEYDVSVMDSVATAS

T8: TX1BP3, O14907
T8 sequence (O14907 10-122, limits assumed, looked up): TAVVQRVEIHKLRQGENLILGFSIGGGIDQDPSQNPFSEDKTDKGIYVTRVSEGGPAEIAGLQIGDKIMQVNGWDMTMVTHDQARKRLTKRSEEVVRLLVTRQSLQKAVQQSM

T9: LRRC7, Q96NW7
T9 sequence (Q96NW7 1440-1537, limits assumed, looked up): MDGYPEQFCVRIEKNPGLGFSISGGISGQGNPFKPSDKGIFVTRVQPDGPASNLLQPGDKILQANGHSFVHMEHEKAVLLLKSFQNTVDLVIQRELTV

T10: SYNJ2BP, P57105
T10 sequence (P57105 8-110, limits assumed, looked up): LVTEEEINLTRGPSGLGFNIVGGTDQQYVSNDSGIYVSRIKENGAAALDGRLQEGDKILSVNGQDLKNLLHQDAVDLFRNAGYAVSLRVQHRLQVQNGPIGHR

T11: PCLO, Q9Y6V0
T11 sequence (Q9Y6V0 4491-4600, limits assumed, looked up): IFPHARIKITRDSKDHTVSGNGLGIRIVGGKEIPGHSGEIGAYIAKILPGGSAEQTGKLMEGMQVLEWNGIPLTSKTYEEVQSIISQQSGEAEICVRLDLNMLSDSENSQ

T12: FRMPD1, Q5SYB0
T12 sequence (Q5SYB0 52-145, limits assumed, looked up): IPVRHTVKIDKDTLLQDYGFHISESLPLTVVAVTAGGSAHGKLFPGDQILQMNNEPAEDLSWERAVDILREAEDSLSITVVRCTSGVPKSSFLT

T13: SNTG1, Q9NSN8
T13 sequence (Q9NSN8 52-150, limits assumed, looked up): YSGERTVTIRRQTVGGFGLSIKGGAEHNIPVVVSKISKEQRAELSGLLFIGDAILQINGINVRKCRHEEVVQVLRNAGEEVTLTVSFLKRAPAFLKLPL

T14: PTPN13_1, Q12923
T14 sequence (Q12923 1088-1188, limits assumed, looked up): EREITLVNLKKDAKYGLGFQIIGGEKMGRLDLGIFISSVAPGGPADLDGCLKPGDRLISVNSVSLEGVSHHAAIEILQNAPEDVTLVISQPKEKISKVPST

B1: RPS6KA1_-3P, Q15418 (peptide)
chain: RRVRKLPSTTL
B2: GLA, P06280 (peptide)
chain: TMQMSLKDLL
B3: TTC24, A2A3L6 (peptide)
chain: PMESGICTIV

target: T1, DFNB31_1, Q9P202; assay: holdup assay; parameters: key: below the threshold = too weak to quantify, mostly under pKd 3.1 to 4; conditions: modified: phospho on S at position -3 from the C-terminal residue

Binder	pKd
B1	3.6

same assay, conditions: plain residues with an end cap or a label only (N-terminal biotin on a linker: ado-ado)

Binder	pKd
B2	below the threshold
B3	3.65

target: T2, PDZRN3_1, Q9UPQ7; assay: holdup assay; parameters: key: below the threshold = too weak to quantify, mostly under pKd 3.1 to 4; conditions: modified: phospho on S at position -3 from the C-terminal residue

Binder	pKd
B1	below the threshold

same assay, conditions: plain residues with an end cap or a label only (N-terminal biotin on a linker: ado-ado)

Binder	pKd
B2	3.49
B3	3.48

target: GRIP2_6, Q9C0E4; assay: holdup assay; parameters: key: below the threshold = too weak to quantify, mostly under pKd 3.1 to 4; conditions: modified: phospho on S at position -3 from the C-terminal residue
Sequence (Q9C0E4 648-740): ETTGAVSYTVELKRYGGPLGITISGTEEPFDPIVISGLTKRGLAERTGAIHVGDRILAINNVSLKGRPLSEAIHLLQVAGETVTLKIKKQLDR

Binder	pKd
B1	below the threshold

same assay, conditions: plain residues with an end cap or a label only (N-terminal biotin on a linker: ado-ado)

Binder	pKd
B2	below the threshold
B3	below the threshold

target: GIPC2, Q8TF65; assay: holdup assay; parameters: key: below the threshold = too weak to quantify, mostly under pKd 3.1 to 4; conditions: modified: phospho on S at position -3 from the C-terminal residue
Sequence (Q8TF65 112-203): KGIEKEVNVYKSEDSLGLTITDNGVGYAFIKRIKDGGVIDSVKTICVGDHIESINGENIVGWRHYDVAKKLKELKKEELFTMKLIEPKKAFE

Binder	pKd
B1	below the threshold

same assay, conditions: plain residues with an end cap or a label only (N-terminal biotin on a linker: ado-ado)

Binder	pKd
B2	3.62
B3	below the threshold

target: CASK, O14936; assay: holdup assay; parameters: key: below the threshold = too weak to quantify, mostly under pKd 3.1 to 4; conditions: modified: phospho on S at position -3 from the C-terminal residue
Sequence (O14936 487-570): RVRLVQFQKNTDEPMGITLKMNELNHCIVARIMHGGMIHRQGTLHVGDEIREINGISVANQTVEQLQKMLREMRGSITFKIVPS

Binder	pKd
B1	below the threshold

same assay, conditions: plain residues with an end cap or a label only (N-terminal biotin on a linker: ado-ado)

Binder	pKd
B2	below the threshold
B3	below the threshold

target: T3, MPP2, Q14168; assay: holdup assay; parameters: key: below the threshold = too weak to quantify, mostly under pKd 3.1 to 4; conditions: modified: phospho on S at position -3 from the C-terminal residue

Binder	pKd
B1	below the threshold

same assay, conditions: plain residues with an end cap or a label only (N-terminal biotin on a linker: ado-ado)

Binder	pKd
B2	below the threshold
B3	below the threshold

target: T4, TIAM2, Q8IVF5; assay: holdup assay; parameters: key: below the threshold = too weak to quantify, mostly under pKd 3.1 to 4; conditions: modified: phospho on S at position -3 from the C-terminal residue

Binder	pKd
B1	below the threshold

same assay, conditions: plain residues with an end cap or a label only (N-terminal biotin on a linker: ado-ado)

Binder	pKd
B2	below the threshold
B3	below the threshold

target: T5, PDZD2_2, O15018; assay: holdup assay; parameters: key: below the threshold = too weak to quantify, mostly under pKd 3.1 to 4; conditions: modified: phospho on S at position -3 from the C-terminal residue

Binder	pKd
B1	below the threshold

same assay, conditions: plain residues with an end cap or a label only (N-terminal biotin on a linker: ado-ado)

Binder	pKd
B2	below the threshold
B3	4.68

target: Inadl_3, Q8NI35; assay: holdup assay; parameters: key: below the threshold = too weak to quantify, mostly under pKd 3.1 to 4; conditions: modified: phospho on S at position -3 from the C-terminal residue
Sequence (Q8NI35 359-469): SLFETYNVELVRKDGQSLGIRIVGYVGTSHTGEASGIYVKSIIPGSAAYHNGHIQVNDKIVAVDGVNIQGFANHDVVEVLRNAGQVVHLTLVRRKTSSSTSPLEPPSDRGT

Binder	pKd
B1	below the threshold

same assay, conditions: plain residues with an end cap or a label only (N-terminal biotin on a linker: ado-ado)

Binder	pKd
B2	below the threshold
B3	4.65

target: T6, DFNB31_2, Q9P202; assay: holdup assay; parameters: key: below the threshold = too weak to quantify, mostly under pKd 3.1 to 4; conditions: modified: phospho on S at position -3 from the C-terminal residue

Binder	pKd
B1	below the threshold

same assay, conditions: plain residues with an end cap or a label only (N-terminal biotin on a linker: ado-ado)

Binder	pKd
B2	below the threshold
B3	below the threshold

target: T7, GRIP1_2, Q9Y3R0; assay: holdup assay; parameters: key: below the threshold = too weak to quantify, mostly under pKd 3.1 to 4; conditions: modified: phospho on S at position -3 from the C-terminal residue

Binder	pKd
B1	below the threshold

same assay, conditions: plain residues with an end cap or a label only (N-terminal biotin on a linker: ado-ado)

Binder	pKd
B2	3.5
B3	below the threshold

target: T8, TX1BP3, O14907; assay: holdup assay; parameters: key: below the threshold = too weak to quantify, mostly under pKd 3.1 to 4; conditions: modified: phospho on S at position -3 from the C-terminal residue

Binder	pKd
B1	below the threshold

same assay, conditions: plain residues with an end cap or a label only (N-terminal biotin on a linker: ado-ado)

Binder	pKd
B2	below the threshold
B3	below the threshold

target: T9, LRRC7, Q96NW7; assay: holdup assay; parameters: key: below the threshold = too weak to quantify, mostly under pKd 3.1 to 4; conditions: modified: phospho on S at position -3 from the C-terminal residue

Binder	pKd
B1	below the threshold

same assay, conditions: plain residues with an end cap or a label only (N-terminal biotin on a linker: ado-ado)

Binder	pKd
B2	below the threshold
B3	below the threshold

target: T10, SYNJ2BP, P57105; assay: holdup assay; parameters: key: below the threshold = too weak to quantify, mostly under pKd 3.1 to 4; conditions: modified: phospho on S at position -3 from the C-terminal residue

Binder	pKd
B1	4.48

same assay, conditions: plain residues with an end cap or a label only (N-terminal biotin on a linker: ado-ado)

Binder	pKd
B2	below the threshold
B3	3.79

target: FRMPD4, Q14CM0; assay: holdup assay; parameters: key: below the threshold = too weak to quantify, mostly under pKd 3.1 to 4; conditions: modified: phospho on S at position -3 from the C-terminal residue
Sequence (Q14CM0 67-160): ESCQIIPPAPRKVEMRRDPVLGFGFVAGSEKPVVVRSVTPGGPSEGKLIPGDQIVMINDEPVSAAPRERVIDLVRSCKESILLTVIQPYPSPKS

Binder	pKd
B1	3.73

same assay, conditions: plain residues with an end cap or a label only (N-terminal biotin on a linker: ado-ado)

Binder	pKd
B2	3.67
B3	below the threshold

target: T11, PCLO, Q9Y6V0; assay: holdup assay; parameters: key: below the threshold = too weak to quantify, mostly under pKd 3.1 to 4; conditions: modified: phospho on S at position -3 from the C-terminal residue

Binder	pKd
B1	below the threshold

same assay, conditions: plain residues with an end cap or a label only (N-terminal biotin on a linker: ado-ado)

Binder	pKd
B2	below the threshold
B3	below the threshold

target: SNX27, Q96L92; assay: holdup assay; parameters: key: below the threshold = too weak to quantify, mostly under pKd 3.1 to 4; conditions: modified: phospho on S at position -3 from the C-terminal residue

Binder	pKd
B1	4.1

same assay, conditions: plain residues with an end cap or a label only (N-terminal biotin on a linker: ado-ado)

Binder	pKd
B2	below the threshold
B3	4.63

target: T12, FRMPD1, Q5SYB0; assay: holdup assay; parameters: key: below the threshold = too weak to quantify, mostly under pKd 3.1 to 4; conditions: modified: phospho on S at position -3 from the C-terminal residue

Binder	pKd
B1	below the threshold

same assay, conditions: plain residues with an end cap or a label only (N-terminal biotin on a linker: ado-ado)

Binder	pKd
B2	below the threshold
B3	below the threshold

target: FRMPD2_3, Q68DX3; assay: holdup assay; parameters: key: below the threshold = too weak to quantify, mostly under pKd 3.1 to 4; conditions: modified: phospho on S at position -3 from the C-terminal residue
Sequence (Q68DX3 1073-1166): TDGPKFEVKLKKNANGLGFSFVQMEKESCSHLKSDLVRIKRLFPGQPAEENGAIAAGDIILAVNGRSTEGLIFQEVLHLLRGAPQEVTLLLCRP

Binder	pKd
B1	below the threshold

same assay, conditions: plain residues with an end cap or a label only (N-terminal biotin on a linker: ado-ado)

Binder	pKd
B2	3.58
B3	3.53

target: T13, SNTG1, Q9NSN8; assay: holdup assay; parameters: key: below the threshold = too weak to quantify, mostly under pKd 3.1 to 4; conditions: modified: phospho on S at position -3 from the C-terminal residue

Binder	pKd
B1	3.94

same assay, conditions: plain residues with an end cap or a label only (N-terminal biotin on a linker: ado-ado)

Binder	pKd
B2	3.5
B3	4.06

target: DLG5_1, Q8TDM6; assay: holdup assay; parameters: key: below the threshold = too weak to quantify, mostly under pKd 3.1 to 4; conditions: modified: phospho on S at position -3 from the C-terminal residue
Sequence (Q8TDM6 617-713): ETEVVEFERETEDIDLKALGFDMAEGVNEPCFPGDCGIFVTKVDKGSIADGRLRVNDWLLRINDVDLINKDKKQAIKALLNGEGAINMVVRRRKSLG

Binder	pKd
B1	below the threshold

same assay, conditions: plain residues with an end cap or a label only (N-terminal biotin on a linker: ado-ado)

Binder	pKd
B2	below the threshold
B3	below the threshold

target: MAGI1_2, Q96QZ7; assay: holdup assay; parameters: key: below the threshold = too weak to quantify, mostly under pKd 3.1 to 4; conditions: modified: phospho on S at position -3 from the C-terminal residue
Sequence (Q96QZ7 456-580): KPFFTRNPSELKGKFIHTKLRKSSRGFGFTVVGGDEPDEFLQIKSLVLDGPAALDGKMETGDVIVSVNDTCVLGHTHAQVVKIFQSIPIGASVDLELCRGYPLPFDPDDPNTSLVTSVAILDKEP

Binder	pKd
B1	below the threshold

same assay, conditions: plain residues with an end cap or a label only (N-terminal biotin on a linker: ado-ado)

Binder	pKd
B2	below the threshold
B3	3.7

target: T14, PTPN13_1, Q12923; assay: holdup assay; parameters: key: below the threshold = too weak to quantify, mostly under pKd 3.1 to 4; conditions: modified: phospho on S at position -3 from the C-terminal residue

Binder	pKd
B1	below the threshold

same assay, conditions: plain residues with an end cap or a label only (N-terminal biotin on a linker: ado-ado)

Binder	pKd
B2	below the threshold
B3	below the threshold
